# Assay: soluble fraction after stress (log2 fold change); higher = more stays soluble; pooled small domains, quantitative proteomics
# Conditions: stress: 50 degC
# Outline: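 Quantitative proteomics served as the high-throughput read-out for pooled custom libraries of small protein domains. Each was stressed at 50°C. Aggregation propensity is expressed as the base-two log fold change in soluble protein after stress. A higher value means a larger share of the protein remains in solution.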
row,Sequence,soluble fraction (log2)
1,HMESSSQLGFELARLVESGNDEEARALVQAKELSEADERKWLYHLGNLLHAAGRPLQASAIWREVGT,0.0628
2,HMESVQWSVFPSAKYVTIISFDPTTSGGSATAKFKVSDEARSKGFRFRIEAAIGEGIMRSEMYVIEE,0.0612
3,HMESWNRARILEKIRELHAQGVALNNASMRRLGYRGMMEAAARPQNFGSWEAAVRAAGIDYDRV,-0.00832
4,HMETAVMPDVMKLDSTTAIQALKDKGFATIETYEVKSDRPAGVVVRQSETADSVVALSKEILLGVSNGADY,0.304
5,HMETGFADTLRKFRKEADMTQEKLAEALGVTTGAVYKWENGRSTPEVRLLVEMADLFGTSVDALLDYKVR,-0.622
6,HMETGKLIKELRLKKGMTQEELADKTEVSSRTIQRIENGEVDPRAYTLQMIARALEVDYSLFME,0.0531
7,HMETIELSAPGGVRLDKLIADGTELSRSAAVKLIEQGNVLVNGSPAGKKDIPAAGAAVEITLPEPQ,-0.134
8,HMETIGENIKTYRQKKGYTQEEVANRLHVTRQTISKWEKNYSIPDAEVLVKLADVLEVQTSQLLGV,0.102
9,HMETIGKRVRAARQELGLTMKQLHEQTGLSTGNISDIENDRNTPSVSSLVALGRALRRSLDWLLTGEE,-0.252
10,HMETISEIWRLIDGLDEIYRVPLTMYYRSNRSVREIAETLGLSARTVETRIYRARRMIREKWSN,-2.23
11,HMETITDRLNRRSLELNVSQADIIRTTGAGRGTVSGWFSGANAPSAKYLESLAVALKTSTTWLLSGKD,-0.741
12,HMETKERDEQFLEMIRQNEGIIFKVASFYVDKEHPIGDLYQEVVLNLWKGYPSFRGESKYSTWIYRIALNT,-0.0833
13,HMETKPTELMLEVHELRIGMFVHLDLGWMDHPFPLNRFKISTNSQIEQIKGLRLKQVKVMTALSDPTALS,-2.21
14,HMETKQYIVEAQDEGTRLDVYLTKELGQSRSYVQSLVKEGHVQVNGKTGKSNLKLSSSSEILVTIPEVQ,-0.0648
15,HMETLKINTHLGTLNLKKRGKKGTWQINIYFKNIEGDNHYRQSTGTNQLELAKAKAMNMITTEYSNRLAGI,-1.69
16,HMETMSYAEFNAIRIGKAKLMLADPSLKIWEISEAVGYTDTAHFARTFKKLEGMSANEYRNSL,-1.12
17,HMETNFTGTRIATARKAKNMSQAQLAQQLFISPQAVGKWERGESIPDIVTVVKLADVLGVDLNYFSE,-0.12
18,HMETPQIVARGDLITMVFRSGSLVLTAKGKALENGAMGDTIRVVNSDSNKTLAARVSASREVTVSE,-0.417
19,HMETPSNTAGITHATSDGYIFKGESDIIGRNSFGFIVKHGSHNHIIPFDSLRGTKWEYLINKYT,0.21
20,HMETSVDEVYKKIQAYIEAEDKHKPLSDQKLAEQLQSDGLKVSRRTVAKYREKLNIASSSKRKR,0.358
21,HMETTVPNVLNHNISTGEILLKENNLNFRIQYIPSNKDEAVGTIINSVPTSGEKVKFGTVVDLKVL,0.0465
22,HMETVRHFRLDWSQAADRLDKVLASLMNDVSRARIQEWIRLGAVSVNGEILTDVRAKVAGGDAIDVTPQTA,-0.0893
23,HMETVRLSVDAQGAYYWNEQRVDDSALPDLLREASGRKPQPDLHIRGDKAVRYERVAEAMAAAQRAGLKKI,0.0588

row,Sequence,soluble fraction (log2)
1,HMETVVTEVKTTDVVNIRTSDSETADKLSKAAIGDTFPLLEERGNGWSKVAYNGEEAFIKSDYLEPSKTE,0.42
2,HMETYEFNITDKEQTGMRVDKLLPELNSDWSRNQIQDWIKAGLVVANDKVVKSNYKVKLNDHIVVTEKEV,0.26
3,HMETYPINVETTGTNVLLRTGPSTSSNIIKTITDKGTVFLSIERGINSDWQKVVTPDGTIGYMSGKY,0.000612
4,HMEVAVQFIEFKIPENHAWIGKEIREITFPPESILVLIIRDGKKLVPNGKTVLKEGDSLILSGKASD,-0.538
5,HMEVDDEAIYQGHEPSIRLHRLLKDVGYNSALLPSVVTQIFKDFPGIELAKALPIAMQLLNED,-0.403
6,HMEVFGDTKEEQMIIDILKLGITDLEHLQAKSMLEPAIFSQTLTMLEISGKIRPLGAGHWTL,-1.04
7,HMEVFTPSEANVAEAREILAAMATAKANGEGATVYKGRLVDIASIKQAEVIVRQSEMIQSAH,0.408
8,HMEVIDQLFKIALTLFDIDKGENNSISQDLVDKVIEQMKTTAPTFIKRELSEDEVKKLRFEIQNHFNV,-0.221
9,HMEVKSGFVHLTGAVKSPGVYPISIGMRLFEVIALAGGFTAKADRESVNLARTVTDGEQIIVSGSG,-1.7
10,HMEVLEGFIEDIKFKSEESGYTVAKLNNRNKSIVIVGTMPFISEGQHVKLTGEWKIHQKFGAQFNVKELEE,-0.347
11,HMEVMYFIYQQEEPMRIDKFLVNEMEDFSRNSIQIYIKDNHVLVNDKVVKANYILKKGDAISITIPDPI,-0.404
12,HMEVNMEEKMEFVHSYIKTHKTFLFRQLLSESKSRTQVIVTFLVILELIKGGKISVTQENRTDDILINSL,-0.342
13,HMEVPDTIIRLRELVAAMPEQWQKVYRLVFMEGLSKAKAGKKIGISDVRVGQLVKKINAAIAGDETLK,-0.714
14,HMEVPMELPRQLRANRERLGLSQEDVAHAIYVSRQTMSSWERGKTYPDVQSLMLLSHLFGISIDELVKGDV,-1.55
15,HMEVPVQYIKFKIPENHFWAKKKVADIILPPETLLVLLQRGSDKMIPDGETVLLPEDTLVLIAKAPG,-0.0836
16,HMEVSVPDFTGMSKSDAQNAAKEAGLTVNFEEDYDNQVPAGQVIRSNPSAGEKVKKNSSVTVTLSKGSN,-0.0943
17,HMEVSYSLPRFHKGKNPYVDFYQVDPRTLRMRRKKFLLRGVRDAVLLEQRAADLVALLTERLHSGWNAWDD,-2.11
18,HMEVTENQEKHAYQEAMDQALRFLAPRFLSRAELTRKLLQKEHDRDVIDAVIDRLEELDYVDDAR,0.0309
19,HMEVTLGLGSMVRLLGEPYLGSTGRVVELPDQAERFASGLTAKVAVVERHDGELIRVPVTNLLLME,-0.191
20,HMEVTLTLKSFGTAKVAVIKAIQSITGLGLMDAKKLVDAAPSVIKEKISPSEAEQYKKTLVDAGAEVEI,-0.806
21,HMEVVVPDFEKIYIRDLDKFVEGHNVRYEIVDSIYNLEKDKGTVVDQDPEPGSKVKHGRVIYLTVNAML,-0.207
22,HMEVVVPEDLDAALQQASRAQSFFSSLSYTHKKEYVAWINEAKRAETRAMRIQKTITMLESGQRGH,-1.14
23,HMEWEVHSVTVTPELSGERLDVAATALLSQFSRALVQRWIDANELTLNERPVKAKSKVRVGDLIAVKAK,-0.874

row,Sequence,soluble fraction (log2)
1,HMEWLENIKKLKKEKGLTNESLSEKSGISVGTLNKLLSGATTDPKLSTLRPLADALEVSLDELLAI,0.166
2,HMEWTDIPTHKVPNVVGKSVEEAKKKLSKFTIEYSGTGEKVVAQSPDAGEKLEEGGTVRLLL,0.203
3,HMEYEETMSQIKHNLNLLPRQQRVIIEMAKFDELTPAEIAKQLGISVQTVRNQLSTGLKKLRQLL,-0.0252
4,HMEYKKKIGELLIDGNKKLKAANIDTYILDTQLLLGKVLGKDKLYLITNKDEEVSNFKEREFYSLIEKRI,0.00227
5,HMEYMKQRLYDIIELFKRSFSPSFSEEEKKKLENVLQDDFLRKAYEQLSDEVFIEEKFREFDGY,-1.73
6,HMEYPNEIARIFNQIPELNVSAVARTLGINKSLLSSYIYGMKKPSPERTEEIKSAIRKIGQNMLAV,-0.421
7,HMEYQSLVLDFLEQGDFNAEKLKDYQRAFAKQNGMQTLPSKSQILQAYFQLVEEKKINKNSDFELLLRKR,0.0447
8,HMEYSNLGEALRRLSEIDLQIILLKYSHGFSIKEISKILDIKEVNLYKRNKRALNKLKKILAEMEVLSN,-0.397
9,HMEYYDDEELDRFRGVEADAYDEDAVNEFRDVLYTLQEIEVAGWLRSLQLRAINLPDELKDEAFLI,-1.64
10,HMEYYEDEELDRFRGRNSDQYSDAEIEEFNEILTTLRSEEVAGWIRSLQLREIALPDELKDDVILLVG,-0.804
11,HMEYYIMPVANLHKVVVDGKDMSNLISNNAIAVKANVIDEGQIQIKPGEIIITTPAGVSPEEAVRSP,0.441
12,HMFANQLLLTRFDLNYIKSDVLSRQIDVLGIPIKKLTIEANNKSIWLQGTSQSLSKVRELIGIIDIRENA,-3.1
13,HMFAQDKKFITYKVKEGETVQSISKALSITPYDLLKLNPDIKDNVSQDDLLIIPNKQYDPLGDI,0.144
14,HMFDENVKLIENEYDVSIISRGSELKVMGDVENVDKAARALRSMLAMINKGESLTEQNVRYVLTLVNEGNE,-0.527
15,HMFDFLELGQAIQDAREKQRITREELAEELGISARHLQSVEKEGQYPSFRLFIQLVTMFHISVDQYI,-0.0829
16,HMFDLATVKRVAEEAGMKFTIHPVELRAAHPNTAVLTLKSKAGRILVLKAASVGGGRIRVTEIDGVPAD,-0.423
17,HMFDLDIEQIANDLKHGVMPNLYGLSLQDALYLLEAKGIRVKVAGSGSVVNQSIKTGAYVGSGSVLKLEL,-1.26
18,HMFDLSQRQEQIIEIVRKHGPITGEKIADLLYVTRAALRPDLAILTMSGYLEAKPRVGYTYK,-1.2
19,HMFDMLGDQIKKYRKEKKMSQEELAIPLNVVRQTVSKWENNLSVPDAELLIRLAEVLEISVAELLGT,-0.108
20,HMFDTVFIVRKTSDKPLDGLRTYLNSIGDSLVIGEDDEAFKVHVHTNHPGKVLEEAITYGALQTVKIENMR,-0.966
21,HMFDTVTIGRKIAELRKAHNMTQFELADALGISFQAVSNWERGASMPDISKLPELAEIFGVTIDEVLGK,-0.839
22,HMFEATGKITGTEVSFRRKPTTDSERILFFDINTEFRVIGINNGWYKGVYQGKTGYVRSDFVEIVGG,-0.162
23,HMFEEPYLATYPVLIDPKLAFNVLDTMLEGLEVKMDQDEETGAISVLAPASIHTKITEYLDALSKQ,-0.159

# — the domain aggregation screens of Martell et al. (2025)
